Source: paper PMC7267776

Biological target: AcrB (from pET21a-acrBΔHis) (E. coli) (UniProt P31224)
Test: cryo-EM structure; AcrB/DARPin and AcrBZ/DARPin reconstituted in saposin A discs with E. coli lipids, with or without additional 5% cardiolipin; 20 mM Tris-Cl pH 7.5, 150 mM NaCl; 2 mM minocycline (AcrB) or 1 mM chloramphenicol (AcrBZ) added

Question: Which stoichiometry N does the source give for “AcrB (from pET21a-acrBΔHis) (from UniProt P31224) (natural protein)” here?
Answer: 3
